Data on 2 substances can be found in US20110008383A1.

Test [1] has as its target CS protein on PfPb transgenic sporozoites (P. falciparum CS repeats in the context of the P. berghei CS protein). Nature of the test: cell-based or functional assay.
The target of another test is DR 13 molecules (UniProt P01903). Description: peptide competition assay with DR 13 molecules.

In turn, MAB 2A10 (antibody) displayed an inhibition in TSNA, about 25 µg antibody in test [1] of 96%.

For orientation: IC50 means the midpoint of a concentration-inhibition curve. A low value points to greater potency. Substance “P. falciparum peptide (T* universal epitope of the CS protein)” had an IC50 with DR 13 molecules of 1.8 µM. In other words, the single-digit micromolar range.
